B1: Keratin, type I cuticular Ha8 (Homo sapiens), O76015 (parent)
chain: MTSSYSSSSCPLGCTMAPGARNVSVSPIDIGCQPGAEANIAPMCLLANVAHANRVRVGSTPLGRPSLCLPPTCHTACPLPGTCHIPGNIGICGAYGENTLNGHEKETMQFLNDRLANYLEKVRQLEQENAELEATLLERSKCHESTVCPDYQSYFHTIEELQQKILCSKAENARLIVQIDNAKLAADDFRIKLESERSLRQLVEADKCGTQKLLDDATLAKADLEAQQESLKEEQLSLKSNHEQEVKILRSQLGEKLRIELDIEPTIDLNRVLGEMRAQYEAMLETNRQDVEQWFQAQSEGISLQDMSCSEELQCCQSEILELRCTVNALEVERQAQHTLKDCLQNSLCEAEDRFGTELAQMQSLISNVEEQLSEIRADLERQNQEYQVLLDVKTRLENEIATYRNLLESEDCKLPCNPCSTSPSCVTAPCAPRPSCGPCTTCGPTCGASTTGSRF
B2: FAST kinase domain-containing protein 5, mitochondrial (Homo sapiens), Q7L8L6 (parent)
chain: MAATLKSLKLVRYRAFCSPSAFGAVRSVSYWNVSSTQHGGQDPPEHISLCHSAKKVKNICSTFSSRRILTTSSAHPGLEFSKTSSSKASTLQLGSPRATGVDEEDVEVFDSFENMRVFLQLRPEYRVHSYNASETSQLLSVSEGELILHKVRVNQNNLQAQVIVDYLCKLSSLPAEQHPVLLGSTSFALLCQLSVKKIQLFDTQDLINVLKAFVILGIPHSHSMLDVYETKCCHQVWEMNMDQLLLVADLWRYLGRKVPRFLNIFSSYLNLHWKDLSLSQLVHLIYVIGENRQVSQDLMQKLESLILKYIDLINLEEVGTICLGFFKSSTNLSEFVMRKIGDLACANIQHLSSRSLVNIVKMFRFTHVDHINFMKQIGEIAPQRIPSLGVQGVMHLTLYCSALRFLNEGVMNAVAASLPPRVAHCRSKDVAKILWSFGTLNYKPPNAEEFYSSLISEIHRKMPEFNQYPEHLPTCLLGLAFLEYFPVELIDFALSPGFVRLAQERTKFDLLKELYTLDGTVGIECPDYRGNRLSTHLQQEGSELLWYLAEKDMNSKPEFLETVFLLETMLGGPQYVKHHMILPHTRSSDLEVQLDVNLKPLPFNREATPAENVAKLRLEHVGVSLTDDLMNKLLKGKARGHFQGKTESEPGQQPMELENKAAVPLGGFLCNVADKSGAMEMAGLCPAACMQTPRMKLAVQFTNRNQYCYGSRDLLGLHNMKRRQLARLGYRVVELSYWEWLPLLKRTRLEKLAFLHEKVFTSAL
partner: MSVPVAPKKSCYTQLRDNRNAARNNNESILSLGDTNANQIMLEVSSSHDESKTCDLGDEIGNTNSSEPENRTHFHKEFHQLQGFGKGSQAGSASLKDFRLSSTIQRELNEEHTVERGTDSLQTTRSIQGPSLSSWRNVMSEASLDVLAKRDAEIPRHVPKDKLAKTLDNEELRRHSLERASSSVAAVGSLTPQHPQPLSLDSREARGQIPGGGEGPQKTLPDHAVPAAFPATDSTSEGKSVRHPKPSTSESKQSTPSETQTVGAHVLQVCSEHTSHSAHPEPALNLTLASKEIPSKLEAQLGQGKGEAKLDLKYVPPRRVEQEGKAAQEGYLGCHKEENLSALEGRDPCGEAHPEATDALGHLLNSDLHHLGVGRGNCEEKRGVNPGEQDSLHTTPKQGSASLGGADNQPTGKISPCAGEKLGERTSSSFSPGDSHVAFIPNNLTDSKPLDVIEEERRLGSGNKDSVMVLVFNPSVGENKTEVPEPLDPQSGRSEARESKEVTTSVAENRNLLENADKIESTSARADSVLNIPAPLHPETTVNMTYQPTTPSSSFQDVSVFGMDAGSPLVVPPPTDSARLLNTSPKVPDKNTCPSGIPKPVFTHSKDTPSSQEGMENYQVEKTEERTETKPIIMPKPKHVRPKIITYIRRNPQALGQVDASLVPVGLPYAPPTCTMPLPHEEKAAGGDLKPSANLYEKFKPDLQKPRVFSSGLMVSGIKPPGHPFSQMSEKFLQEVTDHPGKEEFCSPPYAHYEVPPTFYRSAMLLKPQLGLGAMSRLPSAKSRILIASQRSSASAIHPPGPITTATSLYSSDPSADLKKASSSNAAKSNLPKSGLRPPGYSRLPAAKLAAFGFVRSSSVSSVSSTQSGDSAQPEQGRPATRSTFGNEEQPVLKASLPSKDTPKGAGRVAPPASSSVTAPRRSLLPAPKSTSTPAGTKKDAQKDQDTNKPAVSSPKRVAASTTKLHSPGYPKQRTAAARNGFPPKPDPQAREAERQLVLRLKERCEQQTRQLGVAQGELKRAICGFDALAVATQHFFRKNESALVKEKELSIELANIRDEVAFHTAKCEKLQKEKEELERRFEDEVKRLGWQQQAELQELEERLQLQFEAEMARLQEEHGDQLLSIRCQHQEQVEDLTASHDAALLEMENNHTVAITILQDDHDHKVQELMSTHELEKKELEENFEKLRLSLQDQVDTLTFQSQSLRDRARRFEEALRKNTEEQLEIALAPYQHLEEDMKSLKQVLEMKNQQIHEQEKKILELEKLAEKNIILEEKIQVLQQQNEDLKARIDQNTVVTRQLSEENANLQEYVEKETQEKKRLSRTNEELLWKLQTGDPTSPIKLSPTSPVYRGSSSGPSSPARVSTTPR
B3: Vacuolar protein-sorting-associated protein 25 (Homo sapiens), Q9BRG1 (parent)
chain: MAMSFEWPWQYRFPPFFTLQPNVDTRQKQLAAWCSLVLSFCRLHKQSSMTVMEAQESPLFNNVKLQRKLPVESIQIVLEELRKKGNLEWLDKSKSSFLIMWRRPEEWGKLIYQWVSRSGQNNSVFTLYELTNGEDTEDEEFHGLDEATLLRALQALQQEHKAEIITVSDGRGVKFF
partner: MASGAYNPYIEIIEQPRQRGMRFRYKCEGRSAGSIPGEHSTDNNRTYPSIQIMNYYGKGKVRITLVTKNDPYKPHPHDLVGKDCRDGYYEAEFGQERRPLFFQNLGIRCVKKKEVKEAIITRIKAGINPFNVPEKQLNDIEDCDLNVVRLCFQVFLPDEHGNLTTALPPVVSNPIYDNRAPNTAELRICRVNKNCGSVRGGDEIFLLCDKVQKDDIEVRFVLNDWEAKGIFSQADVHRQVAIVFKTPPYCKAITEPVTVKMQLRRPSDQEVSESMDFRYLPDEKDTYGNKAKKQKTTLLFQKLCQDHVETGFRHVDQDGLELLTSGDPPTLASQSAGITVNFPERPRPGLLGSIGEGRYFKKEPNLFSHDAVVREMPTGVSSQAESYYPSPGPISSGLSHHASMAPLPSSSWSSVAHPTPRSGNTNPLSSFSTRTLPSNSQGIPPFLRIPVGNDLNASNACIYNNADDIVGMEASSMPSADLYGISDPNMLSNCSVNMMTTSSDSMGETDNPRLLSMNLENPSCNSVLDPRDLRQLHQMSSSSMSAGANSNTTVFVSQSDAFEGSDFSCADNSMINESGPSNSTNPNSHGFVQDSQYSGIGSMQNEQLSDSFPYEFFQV
B4: Casein kinase II subunit alpha (Homo sapiens), P68400 (parent)
chain: MSGPVPSRARVYTDVNTHRPREYWDYESHVVEWGNQDDYQLVRKLGRGKYSEVFEAINITNNEKVVVKILKPVKKKKIKREIKILENLRGGPNIITLADIVKDPVSRTPALVFEHVNNTDFKQLYQTLTDYDIRFYMYEILKALDYCHSMGIMHRDVKPHNVMIDHEHRKLRLIDWGLAEFYHPGQEYNVRVASRYFKGPELLVDYQMYDYSLDMWSLGCMLASMIFRKEPFFHGHDNYDQLVRIAKVLGTEDLYDYIDKYNIELDPRFNDILGRHSRKRWERFVHSENQHLVSPEALDFLDKLLRYDHQSRLTAREAMEHPYFYTVVKDQARMGSSSMPGGSTPVSSANMMSGISSVPTPSPLGPLAGSPVIAAANPLGMPVPAAAGAQQ
partner: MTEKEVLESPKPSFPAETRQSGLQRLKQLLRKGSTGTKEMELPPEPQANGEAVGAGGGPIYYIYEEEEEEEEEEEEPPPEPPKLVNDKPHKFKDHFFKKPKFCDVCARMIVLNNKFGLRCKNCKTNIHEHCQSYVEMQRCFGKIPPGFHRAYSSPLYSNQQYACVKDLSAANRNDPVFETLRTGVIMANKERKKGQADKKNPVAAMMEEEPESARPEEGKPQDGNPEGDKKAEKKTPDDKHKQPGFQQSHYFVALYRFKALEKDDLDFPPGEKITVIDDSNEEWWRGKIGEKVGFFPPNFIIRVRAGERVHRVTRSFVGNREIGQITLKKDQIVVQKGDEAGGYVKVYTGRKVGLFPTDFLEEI

Variants of: B1
Conditions: with k22e_human KRT2, P35908
Chain of k22e_human KRT2, P35908 (P35908 whole entry): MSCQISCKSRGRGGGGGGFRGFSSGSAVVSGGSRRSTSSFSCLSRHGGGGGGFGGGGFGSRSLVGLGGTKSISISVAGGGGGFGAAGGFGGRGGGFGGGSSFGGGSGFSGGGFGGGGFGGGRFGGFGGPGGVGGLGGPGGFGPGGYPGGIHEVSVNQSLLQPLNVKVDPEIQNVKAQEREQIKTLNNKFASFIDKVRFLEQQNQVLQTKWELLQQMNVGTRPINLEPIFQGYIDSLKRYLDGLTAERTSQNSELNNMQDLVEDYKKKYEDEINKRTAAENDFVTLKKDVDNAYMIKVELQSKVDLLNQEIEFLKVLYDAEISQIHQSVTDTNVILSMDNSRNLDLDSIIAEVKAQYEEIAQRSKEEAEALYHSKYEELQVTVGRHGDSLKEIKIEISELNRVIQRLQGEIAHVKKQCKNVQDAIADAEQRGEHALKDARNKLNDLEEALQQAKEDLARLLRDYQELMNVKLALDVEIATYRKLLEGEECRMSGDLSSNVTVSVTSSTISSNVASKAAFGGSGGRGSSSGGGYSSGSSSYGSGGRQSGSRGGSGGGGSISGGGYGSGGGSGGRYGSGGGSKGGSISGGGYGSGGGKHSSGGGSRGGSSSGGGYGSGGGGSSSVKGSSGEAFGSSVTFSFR

| effect of a mutation on the interaction | Variant |
| --- | --- |
| with no effect | N270K |

Variants of: B1
Conditions: with txnd5_human TXNDC5, Q8NBS9
Chain of txnd5_human TXNDC5, Q8NBS9 (Q8NBS9 whole entry): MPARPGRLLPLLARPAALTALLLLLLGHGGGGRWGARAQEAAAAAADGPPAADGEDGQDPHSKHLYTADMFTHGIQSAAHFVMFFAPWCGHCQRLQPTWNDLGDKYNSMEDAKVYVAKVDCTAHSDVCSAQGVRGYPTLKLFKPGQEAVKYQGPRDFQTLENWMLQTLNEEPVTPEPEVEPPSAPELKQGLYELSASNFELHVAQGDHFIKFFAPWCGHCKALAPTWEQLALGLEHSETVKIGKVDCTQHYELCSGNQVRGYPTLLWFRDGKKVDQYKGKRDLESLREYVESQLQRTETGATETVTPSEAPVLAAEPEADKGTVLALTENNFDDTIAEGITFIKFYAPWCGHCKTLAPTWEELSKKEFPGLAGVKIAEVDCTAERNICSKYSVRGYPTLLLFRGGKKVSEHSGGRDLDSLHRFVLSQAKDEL

| effect of a mutation on the interaction | Variant |
| --- | --- |
| with no effect | N270K |

Variants of: B1
Conditions: with prs8_human PSMC5, P62195
Chain of prs8_human PSMC5, P62195 (P62195 whole entry): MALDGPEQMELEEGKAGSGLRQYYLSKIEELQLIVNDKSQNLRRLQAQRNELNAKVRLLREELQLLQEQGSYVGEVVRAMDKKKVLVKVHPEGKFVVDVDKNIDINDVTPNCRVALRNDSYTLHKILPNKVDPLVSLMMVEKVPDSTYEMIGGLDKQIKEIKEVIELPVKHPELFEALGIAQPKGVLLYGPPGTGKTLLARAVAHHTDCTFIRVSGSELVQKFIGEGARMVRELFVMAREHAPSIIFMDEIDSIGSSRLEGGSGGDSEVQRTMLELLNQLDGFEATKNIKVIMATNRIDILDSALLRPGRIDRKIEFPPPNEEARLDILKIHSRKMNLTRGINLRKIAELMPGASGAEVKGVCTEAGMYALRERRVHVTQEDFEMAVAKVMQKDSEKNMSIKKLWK

| effect of a mutation on the interaction | Variant |
| --- | --- |
| with no effect | N270K |

Variants of: B1
Conditions: with p85b_human PIK3R2, O00459
Chain of p85b_human PIK3R2, O00459 (O00459 whole entry): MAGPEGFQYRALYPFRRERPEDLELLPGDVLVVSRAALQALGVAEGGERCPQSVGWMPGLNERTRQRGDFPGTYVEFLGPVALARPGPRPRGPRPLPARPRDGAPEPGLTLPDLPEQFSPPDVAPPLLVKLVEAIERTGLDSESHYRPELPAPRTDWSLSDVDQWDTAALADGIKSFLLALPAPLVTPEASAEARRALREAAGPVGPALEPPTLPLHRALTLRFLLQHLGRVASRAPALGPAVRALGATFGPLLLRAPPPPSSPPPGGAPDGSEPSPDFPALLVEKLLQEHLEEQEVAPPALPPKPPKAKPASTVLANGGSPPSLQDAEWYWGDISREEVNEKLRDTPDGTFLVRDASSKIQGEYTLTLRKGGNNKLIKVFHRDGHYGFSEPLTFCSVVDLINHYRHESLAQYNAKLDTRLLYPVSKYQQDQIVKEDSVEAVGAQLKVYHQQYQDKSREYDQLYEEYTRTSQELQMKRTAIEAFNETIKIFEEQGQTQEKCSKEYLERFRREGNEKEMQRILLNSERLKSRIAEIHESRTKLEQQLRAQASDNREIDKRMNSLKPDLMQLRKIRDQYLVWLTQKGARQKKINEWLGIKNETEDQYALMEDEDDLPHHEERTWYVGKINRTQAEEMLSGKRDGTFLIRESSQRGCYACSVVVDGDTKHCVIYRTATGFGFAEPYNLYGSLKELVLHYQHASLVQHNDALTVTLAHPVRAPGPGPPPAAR

| effect of a mutation on the interaction | Variant |
| --- | --- |
| with no effect | N270K |

Variants of: B1
Conditions: with KRT6A

| effect of a mutation on the interaction | Variant |
| --- | --- |
| with no effect | N270K |

Variants of: B1
Conditions: with k2c4_human KRT4, P19013
Chain of k2c4_human KRT4, P19013 (P19013 whole entry): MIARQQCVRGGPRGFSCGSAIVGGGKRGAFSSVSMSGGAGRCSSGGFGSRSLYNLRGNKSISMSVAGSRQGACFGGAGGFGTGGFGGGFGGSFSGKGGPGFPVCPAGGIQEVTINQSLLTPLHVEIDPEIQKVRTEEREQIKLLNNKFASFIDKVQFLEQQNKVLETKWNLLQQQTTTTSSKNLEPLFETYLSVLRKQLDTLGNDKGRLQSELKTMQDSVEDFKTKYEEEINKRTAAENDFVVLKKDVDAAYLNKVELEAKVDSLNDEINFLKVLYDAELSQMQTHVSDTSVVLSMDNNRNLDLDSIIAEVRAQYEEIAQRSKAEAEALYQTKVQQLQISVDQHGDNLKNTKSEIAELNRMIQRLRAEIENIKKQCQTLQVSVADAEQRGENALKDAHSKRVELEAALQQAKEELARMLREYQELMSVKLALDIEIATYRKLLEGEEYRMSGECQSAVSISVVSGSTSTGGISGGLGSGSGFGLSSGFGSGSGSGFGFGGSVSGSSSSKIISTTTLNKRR

| effect of a mutation on the interaction | Variant |
| --- | --- |
| with no effect | N270K |

Variants of: B1
Conditions: with txlnb_human TXLNB

| effect of a mutation on the interaction | Variant |
| --- | --- |
| with no effect | N270K |

Variants of: B1
Conditions: with KRT79, Q5XKE5
Chain of KRT79, Q5XKE5 (Q5XKE5 whole entry): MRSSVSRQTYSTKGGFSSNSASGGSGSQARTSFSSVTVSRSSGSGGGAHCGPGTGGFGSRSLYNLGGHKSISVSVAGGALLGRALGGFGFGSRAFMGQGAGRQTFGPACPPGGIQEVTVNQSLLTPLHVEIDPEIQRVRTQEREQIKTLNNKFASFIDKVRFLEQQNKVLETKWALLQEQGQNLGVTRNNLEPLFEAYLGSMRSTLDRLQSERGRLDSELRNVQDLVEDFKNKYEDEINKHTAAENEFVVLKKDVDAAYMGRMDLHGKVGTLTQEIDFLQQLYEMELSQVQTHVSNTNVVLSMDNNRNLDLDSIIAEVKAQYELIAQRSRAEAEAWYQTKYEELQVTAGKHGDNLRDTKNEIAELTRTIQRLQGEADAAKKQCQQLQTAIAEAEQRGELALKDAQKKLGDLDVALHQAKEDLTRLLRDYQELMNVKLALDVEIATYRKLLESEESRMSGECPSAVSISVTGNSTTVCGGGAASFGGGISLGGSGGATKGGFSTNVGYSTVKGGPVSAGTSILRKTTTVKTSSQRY

| effect of a mutation on the interaction | Variant |
| --- | --- |
| with no effect | N270K |

Variants of: B1
Conditions: with txlna_human TXLNA

| effect of a mutation on the interaction | Variant |
| --- | --- |
| with no effect | N270K |

Variants of: B2
Conditions: with mtus2_human MTUS2, Q5JR59

| effect of a mutation on the interaction | Variant |
| --- | --- |
| with no effect | E483D |

Variants of: B3
Conditions: with rel_human REL

| effect of a mutation on the interaction | Variant |
| --- | --- |
| disrupting interaction strength | P58Q |

Variants of: B4
Conditions: with stac3_human STAC3, Q96MF2

| effect of a mutation on the interaction | Variant |
| --- | --- |
| with no effect | K198R |

From IntAct's records for PubMed 29892012
